# Measurements reported in patent US20240288416.
# Tested on: green fluorescent protein (GFP) carrying an ssrA tag at the C-terminus
substance,measurement,value
unfoldase ClpX,"controlled translocation through the opened ClpP-nanopore (ionic current traces, ATP present)",ClpX-assisted transport of GFP across opened ClpP-nanopore in the presence of ATP
